Paper PMC2033796, “Mechanisms of acquired resistance to the quinazoline thymidylate synthase inhibitor ZD1694 (Tomudex) in one mouse and three human cell lines” (British Journal of Cancer, 1995)

Substrate: Nc1nc2c(c(=O)[nH]1)N1CN(c3ccc(C(=O)N[C@@H](CCC(=O)O)C(=O)O)cc3)CC1CN2
Experiment: purified protein
Type: biochemical, Homo sapiens
Conditions: co-substrate dUMP; mixed diastereoisomers (6R,S)

B1: TS isolated from human ovarian CH1 cells (CH1 TS) (Homo sapiens) (protein)
chain: PVAGSELPRRPLPPAAQERDAEPRPPHGELQYLGQIQHILRCGVRKDDRTGTGTLSVFGMQARYSLRDEFPLLTTKRVFWKGVLEELLWFIKGSTNAKELSSKGVKIWDANGSRDFLDSLGFSTREEGDLGPVYGFQWRHFGAEYRDMESDYSGQGVDQLQRVIDTIKTNPDDRRIIMCAWNPRDLPLMALPPCHALCQFYVVNSELSCQLYQRSGDMGLGVPFNIASYALLTYMIAHITGLKPGDFIHTLGDAHIYLNHIEPLKIQLQREPRPFPKLRILRKVEKIDDFKAEDFQIEGYNPHPTIKMEMAV
notes: native enzyme partially purified from CH1 ovarian tumour cells (parental line), no tag
Km: 24 ± 0.8 µM
